Data reported in paper PMC8892339 (2022).

Key:
Assay in all cases: SPR, 37 °C
[1] = biological target: CD3ζ ITAM3 C peptide ITAM3 (Homo sapiens, UniProt P20963, C-terminal ITAM tyrosine monophosphorylated peptide; tSH2-GFP fusion)
[2] = biological target: CD3ζ ITAM3 N peptide ITAM3 (Homo sapiens, UniProt P20963, N-terminal ITAM tyrosine monophosphorylated peptide; tSH2-GFP fusion)
[3] = biological target: CD3ζ ITAM3 NC peptide ITAM3 (Homo sapiens, UniProt P20963, both ITAM tyrosines phosphorylated peptide; tSH2-GFP fusion)
Chain of CD3ζ ITAM3 NC peptide ITAM3 (P20963 128-162): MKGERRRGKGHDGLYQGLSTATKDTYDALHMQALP

Chain of CD3ζ ITAM3 N peptide ITAM3 (P20963 128-162): as above
Chain of CD3ζ ITAM3 C peptide ITAM3 (P20963 128-162): as above

Kd [1]: 7.52 µM
Kd [2]: 20.7 µM
Kd [3]: 0.0962 µM
B1: ZAP70 tandem SH2 (protein)
chain: MPDPAAHLPFFYGSISRAEAEEHLKLAGMADGLFLLRQCLRSLGGYVLSLVHDVRFHHFPIERQLNGTYAIAGGKAHCGPAELCEFYSRDPDGLPCNLRKPCNRPSGLEPQPGVFDCLRDAMVRDYVRQTWKLEGEALEQAIISQAPQVEKLIATTAHERMPWYHSSLTREEAERKLYSGAQTDGKFLLRPRKEQGTYALSLIYGKTVYHYLISQDKAGKYCIPEGTKFDTLWQLVEYLKLKADGLIYCLKEACPNSSA
